Experimental data: patent publication US20260132197A1 (NANJING LEGEND BIOTECH, published 2026)
Numbering of substitutions follows the chain as printed. In names and notes the source's numbering stands.

B1: 108VH5.M20 / 108VL1.M5 (antibody, human IgG4 S228P, kappa, V domains shown)
VH: EVQLVQSGAEVKKPGASVKVSCKASGYTFTHHWMHWVRQAPGQGLEWMGMIDASDAETRYAQKFQGRVTMTRDTSTSTVYMELSSLRSEDTAVYYCARLGRYYFDYWGQGTLVTVSS
VL: EIVLTQSPATLSLSPGERATLSCRASQSVSSYLAWYQQKPGQAPRLLIYGASNRATGIPARFSGSGSGTDFTLTISSLEPEDFAVYYCGESYGHLYTFGGGTKVEIKR
notes: Full-length IgG4 (S228P), kappa; also called VH5.M20 VL1.M5
B2: 108VH5.M26 / 108VL1.M5 (antibody, human IgG4 S228P, kappa, V domains shown)
VH: B1 VH with A56V
VL: B1 VL
notes: Full-length IgG4 (S228P), kappa; also called VH5.M26 VL1.M5
B3: 108VH10 / 108VL10.Ma (antibody, V domains shown)
VH: EVQLVESGGGLVQPGGSLRLSCAASGYSFTHHWIHWVRQAPGKGLEWVAMIDPSDSETRLSQKFKDRFTISADTSKNTAYLQMNSLRAEDTAVYYCSRLGRYYFDYWGQGTLVTVSS
VL: DIQMTQSPSSLSASVGDRVTITCRASQSISSYLNWYQQKPGKAPKLLIYGASNRYTGVPSRFSGSRSGTDFTLTISSLQPEDFATYYCGESYGHLYTFGQGTKVEIK
notes: 4D5-framework series; constant regions not restated for this series; also called VH10 VL10.Ma
B4: 108VH10.Mb / 108VL10.M1 (antibody, V domains shown)
VH: B3 VH with I34M
VL: B3 VL with Q27E, S28N, I29V, S30G, S31T, L33I, N34S
notes: 4D5-framework series; constant regions not restated for this series; also called VH10.Mb VL10.M1
B5: 108VH10.Me / 108VL10.M1 (antibody, V domains shown)
VH: B3 VH with P53Q
VL: B3 VL with Q27E, S28N, I29V, S30G, S31T, L33I, N34S
notes: 4D5-framework series; constant regions not restated for this series; Pro53 replaced with Gln; also called VH10.Me VL10.M1
B6: 108VH10 / 108VL10.Md (antibody, V domains shown)
VH: B3 VH
VL: B3 VL with Q27E, S28N, I29V, S30G, S31T, L33I, N34S, T56S
notes: 4D5-framework series; constant regions not restated for this series; also called VH10 VL10.Md
B7: 108VH10.Ma / 108VL10.M1 (antibody, V domains shown)
VH: B3 VH with Y27F, S28T, T30S
VL: B3 VL with Q27E, S28N, I29V, S30G, S31T, L33I, N34S
notes: 4D5-framework series; constant regions not restated for this series; also called VH10.Ma VL10.M1
B8: 108VH10 / 108VL10.Mc (antibody, V domains shown)
VH: B3 VH
VL: B3 VL with Q27E, S28N, I29V, S30G, S31T, L33I, N34S, N53S
notes: 4D5-framework series; constant regions not restated for this series; also called VH10 VL10.Mc
B9: 108VH10.Md / 108VL10.M1 (antibody, V domains shown)
VH: B3 VH with D52K
VL: B3 VL with Q27E, S28N, I29V, S30G, S31T, L33I, N34S
notes: 4D5-framework series; constant regions not restated for this series; Asp52 replaced with Lys; also called VH10.Md VL10.M1

The binders below were run against T1, wild type human CD47 (Acro Biosystems, cat. no. CD7-H5227) (human, UniProt Q08722 19-139) (assay: SPR, IgG captured, CD47 in flow; exp 4;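 also: biacore T200 SPR using IgG from transfected HEK293 supernatants against wild-type human CD47 or its C33G mutein, rates fitted to association and dissociation curves, KD estimated from them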).
T1 construct: Bought protein used as SPR analyte; also called Human CD47 wt; wild-type CD47
T1 sequence (Q08722 19-139 limits assumed): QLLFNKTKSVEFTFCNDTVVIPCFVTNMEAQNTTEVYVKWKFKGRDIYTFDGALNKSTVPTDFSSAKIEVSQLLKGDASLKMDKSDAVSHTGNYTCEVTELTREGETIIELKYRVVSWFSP

Kd	koff	kon	Binder
3 nM	0.0022 s⁻¹	710000 M⁻¹ s⁻¹	B1
4.6 nM	0.0026 s⁻¹	570000 M⁻¹ s⁻¹	B2

The binders below were run against T2, Human CD47-C33G (human, UniProt Q08722 19-135) (assay: SPR, IgG captured, CD47 in flow; exp 4;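 also: biacore T200 SPR using IgG from transfected HEK293 supernatants against wild-type human CD47 or its C33G mutein, rates fitted to association and dissociation curves, KD estimated from them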).
T2 construct: also called CD47 mutein with C33G mutation
T2 sequence (Q08722 19-135 C33G limits assumed): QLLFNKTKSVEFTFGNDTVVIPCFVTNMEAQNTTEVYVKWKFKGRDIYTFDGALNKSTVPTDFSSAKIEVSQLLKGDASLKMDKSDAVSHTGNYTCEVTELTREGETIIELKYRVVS

Kd	koff	kon	Binder
15 nM	0.0045 s⁻¹	310000 M⁻¹ s⁻¹	B1
23 nM	0.0054 s⁻¹	240000 M⁻¹ s⁻¹	B2

Each binder was assayed against T1, wild type human CD47 (Acro Biosystems, …) (assay: SPR, IgG captured, CD47 in flow; exp 2;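 also: rates derived from association and dissociation curves, KD estimated from them, C33G mutein used to avoid CD47 IgV homodimers for true monovalent affinity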).

Kd	koff	kon	Binder
1.4 nM	0.0015 s⁻¹	1e+06 M⁻¹ s⁻¹	B3
6.5 nM	0.0016 s⁻¹	240000 M⁻¹ s⁻¹	B4
53 nM	0.0027 s⁻¹	52000 M⁻¹ s⁻¹	B5
7.1 nM	0.0016 s⁻¹	230000 M⁻¹ s⁻¹	B6
8.7 nM	0.002 s⁻¹	230000 M⁻¹ s⁻¹	B7
10 nM	0.002 s⁻¹	190000 M⁻¹ s⁻¹	B8

What follows are binders tested against T2, Human CD47-C33G (assay: SPR, IgG captured, CD47 in flow; exp 2;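 also: rates derived from association and dissociation curves, KD estimated from them, C33G mutein used to avoid CD47 IgV homodimers for true monovalent affinity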).

Kd	koff	kon	Binder	binding result
8 nM	0.0029 s⁻¹	360000 M⁻¹ s⁻¹	B3	–
–	–	–	B9	no binding (tested: 2.5 nM to 1.28 µM of antigen tested)
39 nM	0.0035 s⁻¹	89000 M⁻¹ s⁻¹	B4	–
42 nM	0.0036 s⁻¹	86000 M⁻¹ s⁻¹	B6	–
57 nM	0.0046 s⁻¹	82000 M⁻¹ s⁻¹	B7	–
64 nM	0.0044 s⁻¹	69000 M⁻¹ s⁻¹	B8	–
